T1: Axl (Homo sapiens, UniProt P30530)
T1 sequence (P30530 26-451 limits assumed): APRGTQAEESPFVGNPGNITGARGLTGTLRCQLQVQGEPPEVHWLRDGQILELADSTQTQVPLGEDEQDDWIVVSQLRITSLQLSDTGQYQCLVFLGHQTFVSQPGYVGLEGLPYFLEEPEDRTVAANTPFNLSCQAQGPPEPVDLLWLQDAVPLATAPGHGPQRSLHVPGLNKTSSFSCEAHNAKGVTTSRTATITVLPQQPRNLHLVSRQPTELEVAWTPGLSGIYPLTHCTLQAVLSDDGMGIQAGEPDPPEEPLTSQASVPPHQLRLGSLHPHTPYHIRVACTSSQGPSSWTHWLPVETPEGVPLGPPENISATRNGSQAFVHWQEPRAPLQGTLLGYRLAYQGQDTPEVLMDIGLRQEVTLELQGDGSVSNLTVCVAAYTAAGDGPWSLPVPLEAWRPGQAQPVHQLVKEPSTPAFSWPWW

B1: HC-T030A (antibody, V domains shown)
VH: EVQLVQSGAEVKKPGATVKISCKVSGYSFAGHTMNWIRQPPGKGLEWIGLIKPSNGGTSYNQKFKGRVTISADKSISTAYLQWSSLKASDTAMYYCAHGHYESYFAMDYWGQGTLVTVSS
VL: DIQMTQSPSSLSASVGDRVTITCKASQDVSSAVAWYQQKPGQAPRLLIYWASTRHTGVPSRFSGSGSGTEFTLTISSLQPDDFATYYCQEHFSTPLTFGQGTKVEIK
B2: LC-H091T (antibody, V domains shown)
VH: EVQLVQSGAEVKKPGATVKISCKVSGYSFTGHTMNWIRQPPGKGLEWIGLIKPSNGGTSYNQKFKGRVTISADKSISTAYLQWSSLKASDTAMYYCAHGHYESYFAMDYWGQGTLVTVSS
VL: DIQMTQSPSSLSASVGDRVTITCKASQDVSSAVAWYQQKPGQAPRLLIYWASTRHTGVPSRFSGSGSGTEFTLTISSLQPDDFATYYCQETFSTPLTFGQGTKVEIK
B3: LC-V029N (antibody, V domains shown)
VH: EVQLVQSGAEVKKPGATVKISCKVSGYSFTGHTMNWIRQPPGKGLEWIGLIKPSNGGTSYNQKFKGRVTISADKSISTAYLQWSSLKASDTAMYYCAHGHYESYFAMDYWGQGTLVTVSS
VL: DIQMTQSPSSLSASVGDRVTITCKASQDNSSAVAWYQQKPGQAPRLLIYWASTRHTGVPSRFSGSGSGTEFTLTISSLQPDDFATYYCQEHFSTPLTFGQGTKVEIK
B4: LC-H091Y (antibody, V domains shown)
VH: EVQLVQSGAEVKKPGATVKISCKVSGYSFTGHTMNWIRQPPGKGLEWIGLIKPSNGGTSYNQKFKGRVTISADKSISTAYLQWSSLKASDTAMYYCAHGHYESYFAMDYWGQGTLVTVSS
VL: DIQMTQSPSSLSASVGDRVTITCKASQDVSSAVAWYQQKPGQAPRLLIYWASTRHTGVPSRFSGSGSGTEFTLTISSLQPDDFATYYCQEYFSTPLTFGQGTKVEIK
B5: HC-N035I (antibody, V domains shown)
VH: EVQLVQSGAEVKKPGATVKISCKVSGYSFTGHTMIWIRQPPGKGLEWIGLIKPSNGGTSYNQKFKGRVTISADKSISTAYLQWSSLKASDTAMYYCAHGHYESYFAMDYWGQGTLVTVSS
VL: DIQMTQSPSSLSASVGDRVTITCKASQDVSSAVAWYQQKPGQAPRLLIYWASTRHTGVPSRFSGSGSGTEFTLTISSLQPDDFATYYCQEHFSTPLTFGQGTKVEIK
B6: LC-H091S (antibody, V domains shown)
VH: EVQLVQSGAEVKKPGATVKISCKVSGYSFTGHTMNWIRQPPGKGLEWIGLIKPSNGGTSYNQKFKGRVTISADKSISTAYLQWSSLKASDTAMYYCAHGHYESYFAMDYWGQGTLVTVSS
VL: DIQMTQSPSSLSASVGDRVTITCKASQDVSSAVAWYQQKPGQAPRLLIYWASTRHTGVPSRFSGSGSGTEFTLTISSLQPDDFATYYCQESFSTPLTFGQGTKVEIK
B7: LC-V029D (antibody, V domains shown)
VH: EVQLVQSGAEVKKPGATVKISCKVSGYSFTGHTMNWIRQPPGKGLEWIGLIKPSNGGTSYNQKFKGRVTISADKSISTAYLQWSSLKASDTAMYYCAHGHYESYFAMDYWGQGTLVTVSS
VL: DIQMTQSPSSLSASVGDRVTITCKASQDDSSAVAWYQQKPGQAPRLLIYWASTRHTGVPSRFSGSGSGTEFTLTISSLQPDDFATYYCQEHFSTPLTFGQGTKVEIK
B8: LC-V029G (antibody, V domains shown)
VH: EVQLVQSGAEVKKPGATVKISCKVSGYSFTGHTMNWIRQPPGKGLEWIGLIKPSNGGTSYNQKFKGRVTISADKSISTAYLQWSSLKASDTAMYYCAHGHYESYFAMDYWGQGTLVTVSS
VL: DIQMTQSPSSLSASVGDRVTITCKASQDGSSAVAWYQQKPGQAPRLLIYWASTRHTGVPSRFSGSGSGTEFTLTISSLQPDDFATYYCQEHFSTPLTFGQGTKVEIK
B9: LC-A032L (antibody, V domains shown)
VH: EVQLVQSGAEVKKPGATVKISCKVSGYSFTGHTMNWIRQPPGKGLEWIGLIKPSNGGTSYNQKFKGRVTISADKSISTAYLQWSSLKASDTAMYYCAHGHYESYFAMDYWGQGTLVTVSS
VL: DIQMTQSPSSLSASVGDRVTITCKASQDVSSLVAWYQQKPGQAPRLLIYWASTRHTGVPSRFSGSGSGTEFTLTISSLQPDDFATYYCQEHFSTPLTFGQGTKVEIK
B10: LC-H091V (antibody, V domains shown)
VH: EVQLVQSGAEVKKPGATVKISCKVSGYSFTGHTMNWIRQPPGKGLEWIGLIKPSNGGTSYNQKFKGRVTISADKSISTAYLQWSSLKASDTAMYYCAHGHYESYFAMDYWGQGTLVTVSS
VL: DIQMTQSPSSLSASVGDRVTITCKASQDVSSAVAWYQQKPGQAPRLLIYWASTRHTGVPSRFSGSGSGTEFTLTISSLQPDDFATYYCQEVFSTPLTFGQGTKVEIK
B11: LC-V029W (antibody, V domains shown)
VH: EVQLVQSGAEVKKPGATVKISCKVSGYSFTGHTMNWIRQPPGKGLEWIGLIKPSNGGTSYNQKFKGRVTISADKSISTAYLQWSSLKASDTAMYYCAHGHYESYFAMDYWGQGTLVTVSS
VL: DIQMTQSPSSLSASVGDRVTITCKASQDWSSAVAWYQQKPGQAPRLLIYWASTRHTGVPSRFSGSGSGTEFTLTISSLQPDDFATYYCQEHFSTPLTFGQGTKVEIK
B12: HC-E102N (antibody, V domains shown)
VH: EVQLVQSGAEVKKPGATVKISCKVSGYSFTGHTMNWIRQPPGKGLEWIGLIKPSNGGTSYNQKFKGRVTISADKSISTAYLQWSSLKASDTAMYYCAHGHYNSYFAMDYWGQGTLVTVSS
VL: DIQMTQSPSSLSASVGDRVTITCKASQDVSSAVAWYQQKPGQAPRLLIYWASTRHTGVPSRFSGSGSGTEFTLTISSLQPDDFATYYCQEHFSTPLTFGQGTKVEIK
B13: HC-W110H (antibody, V domains shown)
VH: EVQLVQSGAEVKKPGATVKISCKVSGYSFTGHTMNWIRQPPGKGLEWIGLIKPSNGGTSYNQKFKGRVTISADKSISTAYLQWSSLKASDTAMYYCAHGHYESYFAMDYHGQGTLVTVSS
VL: DIQMTQSPSSLSASVGDRVTITCKASQDVSSAVAWYQQKPGQAPRLLIYWASTRHTGVPSRFSGSGSGTEFTLTISSLQPDDFATYYCQEHFSTPLTFGQGTKVEIK

Tests used:
Axl [1] = biological target: Axl (UniProt P30530); test: ELISA, 1:3 dilution
Axl [2] = biological target: Axl (UniProt P30530); test: ELISA, 1:9 dilution
Axl [3] = biological target: T1, Axl; test: Affinity ELISA of CPE mutant antibodies for binding to Axl at pH 6.0 over pH 7.4; conditions: for Affinity ELISA CPE mutant ratio (1:3, pH 6.0/7.4): 1:3 dilution; for Affinity ELISA CPE mutant ratio (1:9, pH 6.0/7.4): 1:9 dilution
Excerpt: The DNA encoding the wild-type antibody was evolved to generate a mutant antibody library using Comprehensive Positional Evolution (CPE), which each position in the template antibody is randomized one at a time. Each mutant antibody in the library has only one single point mutation. The mutant antibodies in the library were generated by simultaneously screening for selective binding affinity to Axl at pH 6.0 over pH 7.4 by ELISA. Two mutant antibody dilutions were used: 1:3 and 1:9 dilutions. The mutant antibodies that have at least 1.5 ratio of binding affinity at pH 6.0 to at pH 7.4 under either 1:3 or 1:9 dilution are selected as conditionally active antibodies, with the single point mutations indicated in each of the heavy chain and light chain variable region (Tables 1 and 2).
A wild-type antibody to Axl was selected as the template antibody (with a heavy chain variable region of 063-hum10F10-HC in FIG. 1A and a light chain variable region of […]). The DNA encoding the wild-type antibody was evolved to generate a mutant antibody library using Comprehensive Positional Evolution (CPE), a method by which each position in the template antibody is randomized one at a time. Each mutant antibody in the library has only one single point mutation. The mutant antibodies in the library were generated by simultaneously screening for selective binding affinity to Axl at pH 6.0 over pH 7.4 as determined by ELISA.
Simultaneously, the expression level of the mutant antibodies was also optimized for the purpose of higher fields in a manufacturing process. The screening was done in serum using a FLAG tag because there were human antibodies in the serum which might cause false positives for the screening. The screening buffer was a carbonate buffer (Krebs buffer with ringer-standard buffer but different from PBS). […] Some of the selected mutant antibodies (scFv) were represented in FIG. 2 with their higher activity at pH 6.0 than at pH 7.4, while their activity ratios between pH 6.0 to pH 7.4 were at least 11 fold (FIG. 3).

[4] = heavy chain variable region mutants
[5] = light chain variable region mutants

Molecule	Affinity ELISA CPE mutant ratio (1:3, pH 6.0/7.4) (Axl [1])	Affinity ELISA CPE mutant ratio (1:9, pH 6.0/7.4) (Axl [2])	Affinity ELISA CPE mutant ratio (1:3, pH 6.0/7.4) (Axl [3]; [4])	Affinity ELISA CPE mutant ratio (1:9, pH 6.0/7.4) (Axl [3]; [4])	Affinity ELISA CPE mutant ratio (1:3, pH 6.0/7.4) (Axl [3]; [5])	Affinity ELISA CPE mutant ratio (1:9, pH 6.0/7.4) (Axl [3]; [5])
B1	1.29	1.76	1.292	1.762	–	–
B2	3.78	3.78	–	–	3.779	3.781
B3	2.6	2.65	–	–	2.595	2.652
B4	3.93	5.13	–	–	3.931	5.126
B5	2.81	1.12	2.814	1.121	–	–
B6	1.76	1.34	–	–	1.758	1.336
B7	2.88	2.68	–	–	2.882	2.679
B8	1.94	1.8	–	–	1.939	1.803
B9	1.98	2.27	–	–	1.982	2.272
B10	4.13	1.17	–	–	4.133	1.171
B11	2.31	2.35	–	–	2.310	2.353
B12	1.52	1.57	1.520	1.567	–	–
B13	7.99	0.932	7.993	0.932	–	–

Reference: US20250276075A1, “METHODS OF TREATING AXL-EXPRESSING CANCERS WITH ANTI-AXL ANTIBODIES, ANTIBODY FRAGMENTS AND THEIR IMMUNOCONJUGATES” (BIOATLA, INC., priority 2020, published 2025)
